Laboratory results reported in patent US20140072613A1 (published 2014).

T1: PKG1β(h) (human, UniProt Q13976-2 1-686)
T1 sequence (looked up): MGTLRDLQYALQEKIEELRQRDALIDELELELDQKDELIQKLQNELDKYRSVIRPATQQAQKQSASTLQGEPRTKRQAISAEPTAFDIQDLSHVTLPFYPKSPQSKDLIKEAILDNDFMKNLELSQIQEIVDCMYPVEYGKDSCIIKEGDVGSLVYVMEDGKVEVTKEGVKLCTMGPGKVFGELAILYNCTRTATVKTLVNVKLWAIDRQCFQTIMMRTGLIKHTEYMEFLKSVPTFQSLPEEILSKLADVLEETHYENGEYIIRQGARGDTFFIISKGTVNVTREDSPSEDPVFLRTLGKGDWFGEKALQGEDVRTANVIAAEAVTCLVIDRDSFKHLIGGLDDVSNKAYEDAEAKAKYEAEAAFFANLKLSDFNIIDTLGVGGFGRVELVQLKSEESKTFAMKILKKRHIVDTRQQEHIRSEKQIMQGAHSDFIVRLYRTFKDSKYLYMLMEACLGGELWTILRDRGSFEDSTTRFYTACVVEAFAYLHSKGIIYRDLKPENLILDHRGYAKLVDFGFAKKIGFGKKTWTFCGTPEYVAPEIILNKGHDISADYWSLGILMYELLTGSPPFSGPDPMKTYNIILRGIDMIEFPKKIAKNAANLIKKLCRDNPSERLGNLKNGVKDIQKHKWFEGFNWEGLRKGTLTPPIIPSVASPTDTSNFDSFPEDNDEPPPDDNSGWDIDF

T2: PKCι(h) (human, UniProt P41743 1-596)
T2 sequence (looked up): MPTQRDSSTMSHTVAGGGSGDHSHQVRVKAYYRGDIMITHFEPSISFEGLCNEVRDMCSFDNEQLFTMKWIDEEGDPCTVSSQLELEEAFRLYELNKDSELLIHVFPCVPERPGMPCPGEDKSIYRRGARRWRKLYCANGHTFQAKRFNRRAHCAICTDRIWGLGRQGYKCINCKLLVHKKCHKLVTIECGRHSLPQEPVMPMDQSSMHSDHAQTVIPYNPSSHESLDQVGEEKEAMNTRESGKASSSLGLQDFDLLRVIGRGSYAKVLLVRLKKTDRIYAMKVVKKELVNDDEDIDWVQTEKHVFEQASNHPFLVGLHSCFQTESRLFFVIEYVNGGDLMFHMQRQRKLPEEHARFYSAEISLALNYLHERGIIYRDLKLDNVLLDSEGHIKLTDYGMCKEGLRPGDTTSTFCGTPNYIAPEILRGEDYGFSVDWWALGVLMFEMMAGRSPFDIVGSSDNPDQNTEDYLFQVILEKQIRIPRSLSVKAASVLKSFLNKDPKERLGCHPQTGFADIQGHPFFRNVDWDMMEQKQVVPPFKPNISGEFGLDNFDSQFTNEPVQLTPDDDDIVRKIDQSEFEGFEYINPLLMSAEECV

T3: EphB3(h) (human, UniProt P54753 581-998, limits assumed)
T3 sequence (looked up): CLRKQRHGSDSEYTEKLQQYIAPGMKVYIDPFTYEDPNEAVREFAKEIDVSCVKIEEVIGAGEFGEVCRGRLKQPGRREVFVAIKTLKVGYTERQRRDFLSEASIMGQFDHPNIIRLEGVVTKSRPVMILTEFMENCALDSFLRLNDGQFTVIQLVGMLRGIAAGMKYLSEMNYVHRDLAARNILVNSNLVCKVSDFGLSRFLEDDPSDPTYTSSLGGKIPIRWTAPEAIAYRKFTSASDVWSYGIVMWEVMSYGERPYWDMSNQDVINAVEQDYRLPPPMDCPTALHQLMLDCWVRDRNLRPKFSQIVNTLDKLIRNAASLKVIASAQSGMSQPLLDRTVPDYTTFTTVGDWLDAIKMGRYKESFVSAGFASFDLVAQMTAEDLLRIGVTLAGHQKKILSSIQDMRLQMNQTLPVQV

T4: TAK1(h) (human, UniProt O43318 1-303, limits assumed)
T4 sequence (looked up): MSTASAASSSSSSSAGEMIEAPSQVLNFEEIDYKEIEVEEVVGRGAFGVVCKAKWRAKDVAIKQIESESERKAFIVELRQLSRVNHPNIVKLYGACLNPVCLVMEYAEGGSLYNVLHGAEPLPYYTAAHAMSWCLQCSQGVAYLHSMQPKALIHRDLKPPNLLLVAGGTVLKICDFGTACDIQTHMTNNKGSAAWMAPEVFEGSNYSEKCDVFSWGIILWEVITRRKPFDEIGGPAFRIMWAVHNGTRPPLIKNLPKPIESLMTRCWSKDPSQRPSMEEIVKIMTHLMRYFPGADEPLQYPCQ


Tests used:
Experiment in all cases: cell-based or functional assay
[1] = biological target: PAK4(h) (human, UniProt O96013 1-591, limits assumed)
Sequence of PAK4(h) (O96013 whole entry): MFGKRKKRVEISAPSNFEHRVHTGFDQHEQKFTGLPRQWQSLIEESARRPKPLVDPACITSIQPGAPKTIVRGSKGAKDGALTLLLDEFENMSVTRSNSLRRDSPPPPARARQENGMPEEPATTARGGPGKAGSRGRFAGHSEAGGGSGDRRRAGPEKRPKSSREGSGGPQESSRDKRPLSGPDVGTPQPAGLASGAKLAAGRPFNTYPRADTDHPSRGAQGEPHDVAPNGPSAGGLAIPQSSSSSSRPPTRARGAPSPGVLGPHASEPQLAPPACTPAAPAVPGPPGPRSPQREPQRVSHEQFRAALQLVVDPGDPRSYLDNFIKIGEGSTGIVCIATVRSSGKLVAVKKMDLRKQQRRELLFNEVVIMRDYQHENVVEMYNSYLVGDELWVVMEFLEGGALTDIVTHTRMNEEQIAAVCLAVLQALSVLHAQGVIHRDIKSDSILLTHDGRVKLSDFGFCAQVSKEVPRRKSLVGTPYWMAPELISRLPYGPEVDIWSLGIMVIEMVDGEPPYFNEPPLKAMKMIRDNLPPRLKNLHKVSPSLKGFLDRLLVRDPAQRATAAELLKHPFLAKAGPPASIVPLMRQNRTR

[2] = biological target: KDR(h) (human, UniProt P35968 790-1356, limits assumed)
Sequence of KDR(h) (P35968 790-1356 limits assumed): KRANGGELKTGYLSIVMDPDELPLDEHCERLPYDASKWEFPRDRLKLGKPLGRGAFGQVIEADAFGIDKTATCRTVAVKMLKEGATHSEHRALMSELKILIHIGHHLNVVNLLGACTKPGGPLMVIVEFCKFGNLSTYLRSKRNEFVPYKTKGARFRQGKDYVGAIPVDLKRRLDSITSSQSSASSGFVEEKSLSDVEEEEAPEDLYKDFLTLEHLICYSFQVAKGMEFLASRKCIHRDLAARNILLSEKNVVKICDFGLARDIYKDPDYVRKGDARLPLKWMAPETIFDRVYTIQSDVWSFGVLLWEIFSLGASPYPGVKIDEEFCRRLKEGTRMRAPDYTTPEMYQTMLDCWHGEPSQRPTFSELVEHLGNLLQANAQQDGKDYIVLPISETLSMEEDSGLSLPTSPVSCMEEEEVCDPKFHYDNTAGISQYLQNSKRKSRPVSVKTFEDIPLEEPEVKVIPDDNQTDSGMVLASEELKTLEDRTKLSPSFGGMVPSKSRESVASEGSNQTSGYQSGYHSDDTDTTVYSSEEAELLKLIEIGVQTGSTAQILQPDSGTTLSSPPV

[3] = biological target: T1, PKG1β(h)
[4] = biological target: ALK(h) (human, UniProt Q9UM73 1058-1620, limits assumed)
Sequence of ALK(h) (Q9UM73 1058-1620 limits assumed): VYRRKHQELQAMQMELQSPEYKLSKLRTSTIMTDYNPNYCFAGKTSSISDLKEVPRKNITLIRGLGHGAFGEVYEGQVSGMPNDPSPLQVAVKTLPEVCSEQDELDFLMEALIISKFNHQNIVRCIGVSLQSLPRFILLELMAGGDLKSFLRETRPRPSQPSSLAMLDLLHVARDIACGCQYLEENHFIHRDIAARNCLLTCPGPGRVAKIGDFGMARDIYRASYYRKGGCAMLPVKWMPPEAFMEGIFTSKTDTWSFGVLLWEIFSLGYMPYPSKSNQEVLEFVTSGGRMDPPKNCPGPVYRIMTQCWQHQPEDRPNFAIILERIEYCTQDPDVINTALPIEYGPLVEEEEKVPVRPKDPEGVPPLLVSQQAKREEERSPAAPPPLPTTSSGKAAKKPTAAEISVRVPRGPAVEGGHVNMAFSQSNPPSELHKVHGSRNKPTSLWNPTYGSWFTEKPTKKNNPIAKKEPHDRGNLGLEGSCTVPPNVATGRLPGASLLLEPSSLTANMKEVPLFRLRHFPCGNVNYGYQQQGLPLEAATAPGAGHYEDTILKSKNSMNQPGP

[5] = biological target: PAK3(h) (human, UniProt O75914 1-559, limits assumed)
Sequence of PAK3(h) (O75914 whole entry): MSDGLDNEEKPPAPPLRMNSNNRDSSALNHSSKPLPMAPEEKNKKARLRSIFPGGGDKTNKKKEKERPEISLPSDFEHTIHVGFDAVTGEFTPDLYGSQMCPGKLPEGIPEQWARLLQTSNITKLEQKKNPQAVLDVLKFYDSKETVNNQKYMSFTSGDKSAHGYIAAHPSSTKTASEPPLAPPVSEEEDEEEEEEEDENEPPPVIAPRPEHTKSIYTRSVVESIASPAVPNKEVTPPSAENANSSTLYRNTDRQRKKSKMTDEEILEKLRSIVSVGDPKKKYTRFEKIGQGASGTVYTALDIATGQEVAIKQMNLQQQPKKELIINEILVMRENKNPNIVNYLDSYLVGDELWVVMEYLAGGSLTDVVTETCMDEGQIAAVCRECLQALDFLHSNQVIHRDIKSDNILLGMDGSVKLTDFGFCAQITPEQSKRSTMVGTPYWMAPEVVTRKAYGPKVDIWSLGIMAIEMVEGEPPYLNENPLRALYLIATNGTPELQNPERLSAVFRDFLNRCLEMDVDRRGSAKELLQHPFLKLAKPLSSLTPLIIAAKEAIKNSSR

[6] = biological target: T2, PKCι(h)
[7] = biological target: CDK2/cyclinE(h) (human, UniProt P24941 1-298; P24864 1-410)
[8] = biological target: T3, EphB3(h)
[9] = biological target: Pim-2(h) (human, UniProt Q9P1W9 1-311)
[10] = biological target: Rsk2(h) (human, UniProt P51812 1-740)
Sequence of Rsk2(h) (P51812 whole entry): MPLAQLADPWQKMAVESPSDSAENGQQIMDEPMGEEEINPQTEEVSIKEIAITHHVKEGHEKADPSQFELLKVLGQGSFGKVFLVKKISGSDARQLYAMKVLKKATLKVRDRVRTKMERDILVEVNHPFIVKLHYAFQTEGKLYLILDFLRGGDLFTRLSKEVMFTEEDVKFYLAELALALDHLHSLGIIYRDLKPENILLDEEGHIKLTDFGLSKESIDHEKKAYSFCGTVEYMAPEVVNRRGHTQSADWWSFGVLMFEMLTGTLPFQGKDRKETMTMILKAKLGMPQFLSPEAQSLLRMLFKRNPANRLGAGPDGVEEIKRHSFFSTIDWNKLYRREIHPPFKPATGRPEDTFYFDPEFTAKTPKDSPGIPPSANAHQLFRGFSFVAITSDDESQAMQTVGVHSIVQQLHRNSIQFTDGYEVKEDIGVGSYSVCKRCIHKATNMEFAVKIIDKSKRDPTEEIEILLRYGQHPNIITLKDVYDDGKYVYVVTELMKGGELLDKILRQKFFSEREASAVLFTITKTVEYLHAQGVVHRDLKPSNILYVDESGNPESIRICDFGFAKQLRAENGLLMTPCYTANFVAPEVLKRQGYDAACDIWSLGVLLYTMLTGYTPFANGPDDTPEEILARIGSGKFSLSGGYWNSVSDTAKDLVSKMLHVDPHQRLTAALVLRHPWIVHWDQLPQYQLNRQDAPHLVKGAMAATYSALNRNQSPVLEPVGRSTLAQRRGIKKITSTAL

[11] = biological target: AMPKα2(h) (human, UniProt P54646 1-552)
Sequence of AMPKα2(h) (P54646 whole entry): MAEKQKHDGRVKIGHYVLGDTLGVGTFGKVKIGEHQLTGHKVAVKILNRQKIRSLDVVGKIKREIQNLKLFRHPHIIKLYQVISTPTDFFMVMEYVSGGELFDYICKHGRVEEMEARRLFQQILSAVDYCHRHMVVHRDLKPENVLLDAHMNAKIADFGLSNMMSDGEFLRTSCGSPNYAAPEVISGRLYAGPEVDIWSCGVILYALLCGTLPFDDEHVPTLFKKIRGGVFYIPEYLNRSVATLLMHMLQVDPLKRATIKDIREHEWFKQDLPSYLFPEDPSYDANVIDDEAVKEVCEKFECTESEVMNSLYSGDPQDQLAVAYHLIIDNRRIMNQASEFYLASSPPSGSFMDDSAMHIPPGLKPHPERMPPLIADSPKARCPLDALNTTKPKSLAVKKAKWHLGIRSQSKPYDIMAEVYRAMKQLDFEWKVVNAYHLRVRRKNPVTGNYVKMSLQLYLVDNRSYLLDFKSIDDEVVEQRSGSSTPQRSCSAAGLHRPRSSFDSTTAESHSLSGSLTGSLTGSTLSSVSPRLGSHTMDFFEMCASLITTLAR

[12] = biological target: Met(D1246H)(h) (human, UniProt P08581-2 974-1408, limits assumed)
[13] = biological target: TrkA(h) (human, UniProt P04629 441-796, limits assumed)
Sequence of TrkA(h) (P04629 441-796 limits assumed): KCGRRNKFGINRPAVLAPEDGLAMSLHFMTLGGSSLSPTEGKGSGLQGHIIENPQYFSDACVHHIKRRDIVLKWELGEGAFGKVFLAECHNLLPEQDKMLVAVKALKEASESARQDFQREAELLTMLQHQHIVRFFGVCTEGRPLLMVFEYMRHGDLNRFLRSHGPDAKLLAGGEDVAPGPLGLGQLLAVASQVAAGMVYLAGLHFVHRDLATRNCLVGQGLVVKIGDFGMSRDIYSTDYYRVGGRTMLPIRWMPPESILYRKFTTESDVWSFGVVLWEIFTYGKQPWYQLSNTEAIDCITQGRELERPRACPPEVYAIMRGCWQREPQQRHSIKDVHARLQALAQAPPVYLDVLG

[14] = biological target: PRK2(h) (human, UniProt Q16513 501-984, limits assumed)
Sequence of PRK2(h) (Q16513 501-984 limits assumed): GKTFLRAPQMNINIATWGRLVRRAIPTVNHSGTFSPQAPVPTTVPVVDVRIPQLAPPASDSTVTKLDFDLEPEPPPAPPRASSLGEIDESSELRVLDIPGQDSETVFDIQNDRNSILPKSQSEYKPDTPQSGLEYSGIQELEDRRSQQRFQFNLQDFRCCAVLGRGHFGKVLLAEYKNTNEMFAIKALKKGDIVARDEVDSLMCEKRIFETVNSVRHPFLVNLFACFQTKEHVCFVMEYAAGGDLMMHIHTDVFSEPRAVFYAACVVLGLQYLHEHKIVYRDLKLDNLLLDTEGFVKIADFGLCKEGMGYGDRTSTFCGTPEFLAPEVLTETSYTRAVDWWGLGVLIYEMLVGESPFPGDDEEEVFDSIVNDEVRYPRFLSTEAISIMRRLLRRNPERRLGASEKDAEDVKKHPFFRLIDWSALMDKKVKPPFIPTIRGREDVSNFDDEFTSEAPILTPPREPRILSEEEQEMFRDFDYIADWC

[15] = biological target: ROCK-I(h) (human, UniProt Q13464 17-535, limits assumed)
Sequence of ROCK-I(h) (Q13464 17-535 limits assumed): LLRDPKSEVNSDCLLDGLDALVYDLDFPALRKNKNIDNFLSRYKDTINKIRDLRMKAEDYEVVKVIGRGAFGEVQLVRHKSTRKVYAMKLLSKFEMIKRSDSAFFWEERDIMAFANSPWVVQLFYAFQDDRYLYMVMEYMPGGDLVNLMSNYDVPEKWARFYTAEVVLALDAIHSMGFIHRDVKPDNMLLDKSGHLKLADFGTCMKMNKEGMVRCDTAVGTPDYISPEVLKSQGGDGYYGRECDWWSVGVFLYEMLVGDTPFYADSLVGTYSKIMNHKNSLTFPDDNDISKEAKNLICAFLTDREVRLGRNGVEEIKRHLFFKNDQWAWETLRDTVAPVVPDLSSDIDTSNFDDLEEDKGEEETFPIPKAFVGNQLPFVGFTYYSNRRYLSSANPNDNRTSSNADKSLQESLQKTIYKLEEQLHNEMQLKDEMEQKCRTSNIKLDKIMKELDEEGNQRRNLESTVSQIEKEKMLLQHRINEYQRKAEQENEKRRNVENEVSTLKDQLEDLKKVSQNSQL

[16] = biological target: T4, TAK1(h)

Binder	% activity, 100 µM [1] [%]	% activity, 100 µM [2] [%]	% activity, 100 µM [3] [%]	% activity, 100 µM [4] [%]	% activity, 100 µM [5] [%]	% activity, 100 µM [6] [%]	% activity, 100 µM [7] [%]	% activity, 100 µM [8] [%]	% activity, 100 µM [9] [%]	% activity, 100 µM [10] [%]	% activity, 100 µM [11] [%]	% activity, 100 µM [12] [%]	% activity, 100 µM [13] [%]	% activity, 100 µM [14] [%]	% activity, 100 µM [15] [%]	% activity, 100 µM [16] [%]
FAKLAARLYRKALARQLGVAA [MMI-0300]	94	101	50	19	140	68	94	62	76	51	54	125	25	33	79	122
KAFAKLAARLYRKALARQLGVAA [MMI-0400]	89	94	53	16	121	46	83	47	92	38	58	68	17	27	73	177
